According to US20140288007A1:

Legend:
caspase 3 = assay: cell-based or functional assay
[1] = molecular target: Kgp on P. gingivalis W50 whole cells (Lys-specific activity, GPKNa substrate) (Porphyromonas gingivalis) (UniProt Q51817); assay: cell-based or functional assay
papain = papain (UniProt P00784); assay: cell-based or functional assay
[2] = molecular target: RgpB (mature Arg-gingipain purified from P. gingivalis HG66) (Porphyromonas gingivalis) (UniProt P95493); assay: cell-based or functional assay
[3] = molecular target: RgpB (mature Arg-gingipain purified from P. gingivalis HG66) (Porphyromonas gingivalis) (UniProt P95493); assay: enzyme inhibition kinetics (non-competitive, Ki′), chromogenic substrate BapNA, secondary plot of Vmax observed against inhibitor concentration
[4] = molecular target: Whole cell W50 (proteolytic activity on BapNa substrate); assay: cell-based or functional assay
[5] = molecular target: T1, recombinant RgpB propeptide, P95493
T1 chain: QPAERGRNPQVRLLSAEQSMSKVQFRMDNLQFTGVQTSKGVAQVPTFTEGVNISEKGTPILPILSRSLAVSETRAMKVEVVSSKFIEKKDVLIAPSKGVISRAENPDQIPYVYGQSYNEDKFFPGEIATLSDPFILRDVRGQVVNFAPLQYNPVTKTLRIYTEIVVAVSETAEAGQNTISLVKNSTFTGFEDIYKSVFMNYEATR

Chain of UniProt P00784 (P00784 134-345 limits assumed): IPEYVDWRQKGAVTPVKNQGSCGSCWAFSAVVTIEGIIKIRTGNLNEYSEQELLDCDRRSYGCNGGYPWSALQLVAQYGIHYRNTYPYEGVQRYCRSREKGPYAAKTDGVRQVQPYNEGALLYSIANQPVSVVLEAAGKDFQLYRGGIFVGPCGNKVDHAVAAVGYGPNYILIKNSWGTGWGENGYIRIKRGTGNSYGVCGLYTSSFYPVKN

| Molecule | % Proteolytic Activity (Ac-DEVD-pNa 200 uM; inhibitor 100 mg/L) (caspase 3) [%] | % Proteolytic Activity (whole cells, GPKNa; inhibitor 40 mg/L) [1] [%] | % Proteolytic Activity (whole cells, GPKNa; inhibitor 80 mg/L) [1] [%] | % Proteolytic Activity (BapNa; inhibitor 40 mg/L) (papain) [%] | % Proteolytic Activity (BapNa; inhibitor 50 mg/L) [2] [%] | Ki [3] [nM] | % Proteolytic Activity (whole cells, BapNa; inhibitor 40 mg/L) [4] [%] | % Proteolytic Activity (whole cells, BapNa; inhibitor 80 mg/L) [4] [%] | inhibition of RgpB activity, DQ BSA, 2 h incubation [2] [%] | RgpB proteolytic activity, DQ-BSA fluorescent substrate, 11 h time course [5] |
| --- | --- | --- | --- | --- | --- | --- | --- | --- | --- | --- |
| recombinant Kgp propeptide (from UniProt Q51817 25-1732) | 121 | 65 | 40 | 88 | 105 | – | – | – | – | – |
| recombinant RgpB propeptide (from UniProt P95493 25-229) | 129 | – | – | 68 | – | 11.8 | 68 | 59 | 50 | – |
| RgpB (mature Arg-gingipain purified from P. gingivalis HG66) (protein) YTPVEEKENGRMIVIVPKKYEEDIEDFVDWKNQRGLRTEVKVAEDIASPVTANAIQQFVKQEYEKEGNDLTYVLLVGDHKDIPAKITPGIKSDQVYGQIVGNDHYNEVFIGRFSCESKEDLKTQIDRTIHYERNITTEDKWLGQALCIASAEGGPSADNGESDIQHENIIANLLTQYGYTKIIKCYDPGVTPKNIIDAFNGGISLANYTGHGSETAWGTSHFGTTHVKQLTNSNQLPFIFDVACVNGDFLYNVPCFAEALMRAQKDGKPTGTVAIIASTINQSWASPMRGQDEMNEILCEKHPNNIKRTFGGVTMNGMFAMVEKYKKDGEKMLDTWTVFGDPSLLVRTLVPTKMQVTAPANISASAQTFEVACDYNGAIATLSDDGDMVGTAIVKDGKAIIKLNESIADETNLTLTVVGYNKVTVIKDVKVEGTSIADVANDKPYTVAVSGKTITVESPAAGLTIFDMNGRRVATAKNRMVFEAQNGVYAVRIATEGKTYTEKVIVK | – | – | – | – | – | – | – | – | – | Addition of 10 mg/L (0.44 µM) or 20 mg/L (0.88 µM) RgpB propeptide resulted in near total inhibition of RgpB proteolytic activity |
